According to patent US20040161419A1, “Placental stem cells and uses thereof” (priority 2002, published 2004):

Columns and labels:
placental stem cells [1] = system: placental stem cells
Experimental: The cells were cultured for either 7-10 days or until the cultures grew to confluence. The cells were trypsinized and reseeded in 6 well plates. The cells were subjected to different culture conditions, having varying growth factors supplementing the DMEM or MEM based medium. […] Placental stem cells were cultured for an additional 14 days. At the end of 14 days, the cells were evaluated for the expression of human albumin, CYP3A4, A1AT, or C/EBP-alpha.

placental stem cells [2] = assay: Culture in the presence or absence of EGF (growth curve); type: cell-based, human; details: EGF 10 ng/ml versus absence of EGF
Experimental: A human placenta was obtained from an uncomplicated elective caesarean section. The whole placenta was placed in a sterilized 1000 ml cup and washed with Hank's Balanced Salt Solution (HBSS) containing penicillin G (100 U/ml), streptomycin (100 μg/ml), and amphotericin B (0.25 μg/ml). The umbilical cord was cut and the whole placenta was cut in half at the point of attachment of the umbilical cord. The amnion layer was peeled from the underlying chorion layer of the placenta by gentle stripping with a sterile scalpel, starting from the cut edge (middle of the placental body) and working outward. The amnion was washed with HBSS (without antibiotics) and rinsed with 0.05% Trypsin-EDTA. 0.05% Trypsin-EDTA was added to approximately twice the volume of the tissue in a 50 cc Falcon tube and incubated at 37° C. for 20 min on shaker in a 5% CO2 incubator. The tissue is transferred to a new tube with 0.05% Trypsin-EDTA. Media was added to remaining supernatant in the tube to stop trypsinization and centrifuged at 800 rpm for 10 min at 4° C. The pellet was resuspended in DMEM, 10% FBS, 1 mM Sodium Pyruvate, EGF (10 ng/ml), penicillin G (100 U/ml), streptomycin (100 μg/ml), and amphotericin B (0.25 μg/ml). The trysinization step was repeated up to a total of 3 times. The cells released by each trypsinization were plated separately or mixed in one tube after passing through a 100 μm cell strainer. […]

B1: FGF 7: fibroblast growth factor 7, media supplement (protein, UniProt P21781 32-194, looked up)
Fibroblast growth factor 7: CNDMTPEQMATNVNCSSPERHTRSYDYMEGGDIRVRRLFCRTQWYLRIDKRGKVKGTQEMKNNYNIMEIRTVAVGIVAIKGVESEFYLAMNKEGKLYAKKECNEDCNFKELILENHYNTYASAKWTHNGGEMFVALNQKGIPVRGKKTKKEQKTAHFLPMAIT
liver specific gene expression (albumin, CYP3A4, A1AT, C/EBP-alpha) (placental stem cells [1]): did not enhance liver specific gene expression

B2: EGF: epidermal growth factor, media supplement (protein, UniProt P01133 23-1207, looked up)
Pro-epidermal growth factor: PQHWSCPEGTLAGNGNSTCVGPAPFLIFSHGNSIFRIDTEGTNYEQLVVDAGVSVIMDFHYNEKRIYWVDLERQLLQRVFLNGSRQERVCNIEKNVSGMAINWINEEVIWSNQQEGIITVTDMKGNNSHILLSALKYPANVAVDPVERFIFWSSEVAGSLYRADLDGVGVKALLETSEKITAVSLDVLDKRLFWIQYNREGSNSLICSCDYDGGSVHISKHPTQHNLFAMSLFGDRIFYSTWKMKTIWIANKHTGKDMVRINLHSSFVPLGELKVVHPLAQPKAEDDTWEPEQKLCKLRKGNCSSTVCGQDLQSHLCMCAEGYALSRDRKYCEDVNECAFWNHGCTLGCKNTPGSYYCTCPVGFVLLPDGKRCHQLVSCPRNVSECSHDCVLTSEGPLCFCPEGSVLERDGKTCSGCSSPDNGGCSQLCVPLSPVSWECDCFPGYDLQLDEKSCAASGPQPFLLFANSQDIRHMHFDGTDYGTLLSQQMGMVYALDHDPVENKIYFAHTALKWIERANMDGSQRERLIEEGVDVPEGLAVDWIGRRFYWTDRGKSLIGRSDLNGKRSKIITKENISQPRGIAVHPMAKRLFWTDTGINPRIESSSLQGLGRLVIASSDLIWPSGITIDFLTDKLYWCDAKQSVIEMANLDGSKRRRLTQNDVGHPFAVAVFEDYVWFSDWAMPSVMRVNKRTGKDRVRLQGSMLKPSSLVVVHPLAKPGADPCLYQNGGCEHICKKRLGTAWCSCREGFMKASDGKTCLALDGHQLLAGGEVDLKNQVTPLDILSKTRVSEDNITESQHMLVAEIMVSDQDDCAPVGCSMYARCISEGEDATCQCLKGFAGDGKLCSDIDECEMGVPVCPPASSKCINTEGGYVCRCSEGYQGDGIHCLDIDECQLGEHSCGENASCTNTEGGYTCMCAGRLSEPGLICPDSTPPPHLREDDHHYSVRNSDSECPLSHDGYCLHDGVCMYIEALDKYACNCVVGYIGERCQYRDLKWWELRHAGHGQQQKVIVVAVCVVVLVMLLLLSLWGAHYYRTQKLLSKNPKNPYEESSRDVRSRRPADTEDGMSSCPQPWFVVIKEHQDLKNGGQPVAGEDGQAADGSMQPTSWRQEPQLCGMGTEQGCWIPVSSDKGSCPQVMERSFHMPSYGTQTLEGGVEKPHSLLSANPLWQQRALDPPHQMELTQ
modifications: Pro-epidermal growth factor
notes: epidermal growth factor, media supplement
liver specific gene expression (albumin, CYP3A4, A1AT, C/EBP-alpha) (placental stem cells [1]): enhance liver specific gene expression | proliferation of placental stem cells (placental stem cells [2]): proliferate robustly | proliferation of placental stem cells (placental stem cells [2]; listed as Epidermal Growth Factor (EGF)): grow significantly better

B3: FGF 4: fibroblast growth factor 4, media supplement (protein, UniProt P08620 31-206, looked up)
Fibroblast growth factor 4: APTAPNGTLEAELERRWESLVALSLARLPVAAQPKEAAVQSGAGDYLLGIKRLRRLYCNVGIGFHLQALPDGRIGGAHADTRDSLLELSPVERGVVSIFGVASRFFVAMSSKGKLYGSPFFTDECTFKEILLPNNYNAYESYKYPGMFIALSKNGKTKKGNRVSPTMKVTHFLPRL
liver specific gene expression (albumin, CYP3A4, A1AT, C/EBP-alpha) (placental stem cells [1]): did not enhance liver specific gene expression
